Source: paper PMC3511536, “The Interleukin 3 Gene (IL3) Contributes to Human Brain Volume Variation by Regulating Proliferation and Survival of Neural Progenitors”

Target: SP1 (Homo sapiens, UniProt P08047 1-785)
Assay: EMSA; 10 mM Tris-HCl pH 7.5, 1 mM MgCl2, 0.5 mM EDTA, 0.5 mM DTT, 50 mM NaCl, 50 ug/ml poly(dI-dC), 4% glycerol, 35 fmol probe, 20 min, room temperature; 6% native PAGE
Details: protein: recombinant; label: 3' biotin; blunt

SP1, sequence (P08047 whole entry): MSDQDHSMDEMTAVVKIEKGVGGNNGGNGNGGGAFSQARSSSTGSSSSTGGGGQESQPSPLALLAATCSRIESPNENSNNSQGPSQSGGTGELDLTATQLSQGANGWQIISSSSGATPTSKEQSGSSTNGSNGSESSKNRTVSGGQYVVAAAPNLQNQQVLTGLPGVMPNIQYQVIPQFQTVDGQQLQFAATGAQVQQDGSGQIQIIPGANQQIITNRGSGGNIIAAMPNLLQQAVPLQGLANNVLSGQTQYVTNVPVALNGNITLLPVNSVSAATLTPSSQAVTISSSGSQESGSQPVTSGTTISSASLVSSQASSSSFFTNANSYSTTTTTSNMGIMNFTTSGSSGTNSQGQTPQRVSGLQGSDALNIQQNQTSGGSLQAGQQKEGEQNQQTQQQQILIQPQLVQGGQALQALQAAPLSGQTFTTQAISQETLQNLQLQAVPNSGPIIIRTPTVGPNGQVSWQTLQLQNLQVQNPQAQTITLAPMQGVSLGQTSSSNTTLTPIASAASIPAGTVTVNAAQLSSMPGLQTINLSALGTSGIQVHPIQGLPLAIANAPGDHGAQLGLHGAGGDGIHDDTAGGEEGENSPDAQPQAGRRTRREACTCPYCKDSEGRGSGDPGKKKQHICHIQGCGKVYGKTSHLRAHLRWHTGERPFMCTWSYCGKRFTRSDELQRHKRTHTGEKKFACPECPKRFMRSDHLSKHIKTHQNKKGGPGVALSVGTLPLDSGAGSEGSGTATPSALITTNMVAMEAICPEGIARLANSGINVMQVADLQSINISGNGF

B1: IL3 promoter rs31480 T-allele (dsDNA)
DNA 1: TGCACATATAAGGCGGGAGGTTGTTGCCAACGCTTCAGAGC
DNA 2: GCTCTGAAGCGTTGGCAACAACCTCCCGCCTTATATGTGCA
- binding result: binds

B2: IL3 promoter rs31480 C-allele (dsDNA)
DNA 1: TGCACATATAAGGCGGGAGGCTGTTGCCAACGCTTCAGAGC
DNA 2: GCTCTGAAGCGTTGGCAACAGCCTCCCGCCTTATATGTGCA
- binding result: no binding
